pKd: −log10 of the molar value.
Biological target: Recombinant human MASP-2 (stabilized in a proenzyme form by mutation of the active site Ser 618 into Ala) (human)
Test: SPR; BIAcore 3000, 25 °C; BMP-1, mTLL-1 or MASP-2 immobilised by amine coupling on CM5; C1q or MBL injected (60 µl, 20 µl/min) at several concentrations in 50 mM triethanolamine-HCl, 145 mM NaCl, 2 mM CaCl2, 0.005% surfactant P20, pH 7.4; global fit to a 1:1 Langmuir model; apparent KD from kd/ka

Recombinant human mannose-binding lectin (MBL), sequence (P11226 21-248): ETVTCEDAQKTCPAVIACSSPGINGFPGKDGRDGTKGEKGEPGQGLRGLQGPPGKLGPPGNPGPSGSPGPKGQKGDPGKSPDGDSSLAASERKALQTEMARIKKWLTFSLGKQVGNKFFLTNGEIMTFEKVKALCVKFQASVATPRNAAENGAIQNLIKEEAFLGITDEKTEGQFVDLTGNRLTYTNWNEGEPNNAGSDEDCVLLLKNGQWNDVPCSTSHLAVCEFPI

- pKd: 8.77
- koff: 0.00047 s⁻¹
- kon: 280000 M⁻¹ s⁻¹
Substance: Recombinant human mannose-binding lectin (MBL) (from UniProt P11226 21-248) (natural protein)

— paper PMC5717261
